Assay results from paper PMC10656227.
Each block holds one substance with its values, some of them ahead of it.

Key:
[1] = target: collagen IV NC1 domains of the α121 NC1 hexamer from lens capsule basement membrane (bovine); assay: SDS-PAGE (SDS resistance of the native hexamer); purified NC1 hexamer; Tris-glycine SDS-PAGE with 150 mM NaCl in running buffer and sample buffer; sample at room temperature, not boiled; Coomassie, TCE or Western blot
[2] = target: collagen IV NC1 domains of the NC1 hexamer from quick gloss snail (quick gloss snail (Zonitoides arboreus)); assay: SDS-PAGE (SDS resistance of the native hexamer); partially purified NC1 hexamer (SEC hexamer fraction); SDS-PAGE with 150 mM NaCl; sample at room temperature; Western blot with JK2 or TCE in-gel visualization
[3] = target: collagen IV NC1 domains of the NC1 hexamer from quick gloss snail (quick gloss snail (Zonitoides arboreus)); assay: SDS-PAGE (SDS resistance of the native hexamer); partially purified NC1 hexamer (SEC hexamer fraction); regular SDS-PAGE without Cl^− supplement; sample at room temperature; Western blot with JK2 or TCE in-gel visualization
[4] = target: collagen IV NC1 domains of the NC1 hexamer from market squid lens capsules (market squid (Doryteuthis opalescens)); assay: SDS-PAGE (SDS resistance of the native hexamer); partially purified NC1 hexamer (SEC hexamer fraction); SDS-PAGE with 150 mM NaCl; sample at room temperature; Western blot with JK2 or TCE in-gel visualization
[5] = target: collagen IV NC1 domains of the NC1 hexamer from placenta basement membrane (bovine); assay: SDS-PAGE (SDS resistance of the native hexamer); purified NC1 hexamer; Tris-glycine SDS-PAGE with 150 mM NaCl in running buffer and sample buffer; sample at room temperature, not boiled; Coomassie, TCE or Western blot
[6] = target: collagen IV NC1 domains of the NC1 hexamer from rooster liver, kidney and chorioallantoic membrane (rooster (Gallus gallus domesticus)); assay: as above
[7] = target: collagen IV NC1 domains of the NC1 hexamer from axolotl kidney (axolotl (Ambystoma mexicanum)); assay: SDS-PAGE (SDS resistance of the native hexamer); straight collagenase digest of tissue or animals; SDS-PAGE with 150 mM NaCl; sample at room temperature; Western blot with JK2
[8] = target: collagen IV NC1 domains of the NC1 hexamer from human kidney (human (Homo sapiens)); assay: SDS-PAGE (SDS resistance of the native hexamer); purified NC1 hexamer; Tris-glycine SDS-PAGE with 150 mM NaCl in running buffer and sample buffer; sample at room temperature, not boiled; Coomassie, TCE or Western blot
[9] = target: collagen IV NC1 domains of the NC1 hexamer from dogfish lens capsule, kidney and intestine (dogfish (Squalus acanthias)); assay: SDS-PAGE (SDS resistance of the native hexamer); purified NC1 hexamer; regular SDS-PAGE without Cl^− supplement; sample at room temperature, not boiled; Coomassie, TCE or Western blot
[10] = target: collagen IV NC1 domains of the NC1 hexamer from dogfish lens capsule, kidney and intestine (dogfish (Squalus acanthias)); assay: SDS-PAGE (SDS resistance of the native hexamer); purified NC1 hexamer; Tris-glycine SDS-PAGE with 150 mM NaCl in running buffer and sample buffer; sample at room temperature, not boiled; Coomassie, TCE or Western blot
[11] = target: collagen IV NC1 domains of the NC1 hexamer from zebrafish material (zebrafish (Danio rerio)); assay: SDS-PAGE (SDS resistance of the native hexamer); partially purified NC1 hexamer (SEC hexamer fraction); SDS-PAGE with 150 mM NaCl; sample at room temperature; Western blot with JK2 or TCE in-gel visualization
[12] = target: collagen IV NC1 domains of the NC1 hexamer from zebrafish material (zebrafish (Danio rerio)); assay: SDS-PAGE (SDS resistance of the native hexamer); partially purified NC1 hexamer (SEC hexamer fraction); regular SDS-PAGE without Cl^− supplement; sample at room temperature; Western blot with JK2 or TCE in-gel visualization
[13] = target: collagen IV NC1 domains of the NC1 hexamer from banded killifish organs (banded killifish (Fundulus heteroclitus)); assay: SDS-PAGE (SDS resistance of the native hexamer); straight collagenase digest of tissue or animals; SDS-PAGE with 150 mM NaCl; sample at room temperature; Western blot with JK2
[14] = target: collagen IV NC1 domains of the NC1 hexamer from banded killifish organs (banded killifish (Fundulus heteroclitus)); assay: SDS-PAGE (SDS resistance of the native hexamer); straight collagenase digest of tissue or animals; regular SDS-PAGE without Cl^− supplement; sample at room temperature; Western blot with JK2
[15] = target: collagen IV NC1 domains of the NC1 hexamer from snapping turtle muscle (snapping turtle (Chelydra serpentina)); assay: SDS-PAGE (SDS resistance of the native hexamer); straight collagenase digest of tissue or animals; SDS-PAGE with 150 mM NaCl; sample at room temperature; Western blot with JK2
[16] = target: collagen IV NC1 domains of the NC1 hexamer from California blackworms (California blackworm (Lumbriculus variegatus)); assay: as above
[17] = target: collagen IV NC1 domains of the NC1 hexamer from California blackworms (California blackworm (Lumbriculus variegatus)); assay: SDS-PAGE (SDS resistance of the native hexamer); straight collagenase digest of tissue or animals; regular SDS-PAGE without Cl^− supplement; sample at room temperature; Western blot with JK2
[18] = target: collagen IV NC1 domains of the NC1 hexamer from caiman liver (caiman (Caiman crocodilus)); assay: SDS-PAGE (SDS resistance of the native hexamer); straight collagenase digest of tissue or animals; SDS-PAGE with 150 mM NaCl; sample at room temperature; Western blot with JK2
[19] = target: collagen IV NC1 domains of the NC1 hexamer from African clawed frog kidney (African clawed frog (Xenopus laevis)); assay: as above
[20] = target: collagen IV NC1 domains of the NC1 hexamer from mussel (mussel (Mytilus edulis)); assay: as above
[21] = target: collagen IV NC1 domains of the NC1 hexamer from mussel (mussel (Mytilus edulis)); assay: SDS-PAGE (SDS resistance of the native hexamer); straight collagenase digest of tissue or animals; regular SDS-PAGE without Cl^− supplement; sample at room temperature; Western blot with JK2
[22] = target: collagen IV NC1 domains of the NC1 hexamer from starfish gonads (starfish (Asterias rubens)); assay: SDS-PAGE (SDS resistance of the native hexamer); straight collagenase digest of tissue or animals; SDS-PAGE with 150 mM NaCl; sample at room temperature; Western blot with JK2
[23] = target: collagen IV NC1 domains of the NC1 hexamer from green iguana heart and kidney (green iguana (Iguana iguana)); assay: as above
[24] = target: collagen IV NC1 domains of the NC1 hexamer from green iguana heart and kidney (green iguana (Iguana iguana)); assay: SDS-PAGE (SDS resistance of the native hexamer); straight collagenase digest of tissue or animals; regular SDS-PAGE without Cl^− supplement; sample at room temperature; Western blot with JK2
[25] = target: collagen IV NC1 domains of the NC1 hexamer from sea clam (sea clam (Spisula solidissima)); assay: SDS-PAGE (SDS resistance of the native hexamer); straight collagenase digest of tissue or animals; SDS-PAGE with 150 mM NaCl; sample at room temperature; Western blot with JK2
[26] = target: collagen IV NC1 domains of the NC1 hexamer from sea clam (sea clam (Spisula solidissima)); assay: SDS-PAGE (SDS resistance of the native hexamer); straight collagenase digest of tissue or animals; regular SDS-PAGE without Cl^− supplement; sample at room temperature; Western blot with JK2
[27] = target: collagen IV NC1 domains of the NC1 hexamer from leeches (leech (Hirudo medicinalis)); assay: SDS-PAGE (SDS resistance of the native hexamer); straight collagenase digest of tissue or animals; SDS-PAGE with 150 mM NaCl; sample at room temperature; Western blot with JK2
[28] = target: collagen IV NC1 domains of the NC1 hexamer from leeches (leech (Hirudo medicinalis)); assay: SDS-PAGE (SDS resistance of the native hexamer); straight collagenase digest of tissue or animals; regular SDS-PAGE without Cl^− supplement; sample at room temperature; Western blot with JK2
[29] = target: collagen IV NC1 domains of the NC1 hexamer from bovine kidney (cow (Bos taurus)); assay: SDS-PAGE (SDS resistance of the native hexamer); purified NC1 hexamer; Tris-glycine SDS-PAGE with 150 mM NaCl in running buffer and sample buffer; sample at room temperature, not boiled; Coomassie, TCE or Western blot
[30] = target: collagen IV NC1 domains of the NC1 hexamer from sea squirt (sea squirt (Ciona intestinalis)); assay: SDS-PAGE (SDS resistance of the native hexamer); collagenase digest, soluble fraction; Bis-Tris gel, Mops running buffer with 150 mM NaCl, sample buffer with 400 mM NaCl; sample at room temperature; Western blot with JK2

stoichiometry N [4]: 6
Substance: collagen IV NC1 domains of the NC1 hexamer from market squid lens capsules (domain or fragment)

stoichiometry N [7]: 6
Substance: collagen IV NC1 domains of the NC1 hexamer from axolotl kidney (domain or fragment)

stoichiometry N [8]: 6
Substance: collagen IV NC1 domains of the NC1 hexamer from human kidney (domain or fragment)

stoichiometry N [9]: 6
stoichiometry N [10]: 6
Substance: collagen IV NC1 domains of the NC1 hexamer from dogfish lens capsule, kidney and intestine (domain or fragment)

stoichiometry N [11]: 6
stoichiometry N [12]: 6
Substance: collagen IV NC1 domains of the NC1 hexamer from zebrafish material (domain or fragment)

stoichiometry N [22]: 6
Substance: collagen IV NC1 domains of the NC1 hexamer from starfish gonads (domain or fragment)

stoichiometry N [25]: 6
stoichiometry N [26]: 6
Substance: collagen IV NC1 domains of the NC1 hexamer from sea clam (domain or fragment)

stoichiometry N [27]: 6
stoichiometry N [28]: 6
Substance: collagen IV NC1 domains of the NC1 hexamer from leeches (domain or fragment)

stoichiometry N [29]: 6
Substance: collagen IV NC1 domains of the NC1 hexamer from bovine kidney (domain or fragment)

stoichiometry N [30]: 6
Substance: collagen IV NC1 domains of the NC1 hexamer from sea squirt (domain or fragment)

Second part, the substance before the results:

Substance: collagen IV NC1 domains of the α121 NC1 hexamer from lens capsule basement membrane (domain or fragment)
stoichiometry N [1]: 6

Substance: collagen IV NC1 domains of the NC1 hexamer from quick gloss snail (domain or fragment)
stoichiometry N [2]: 6
stoichiometry N [3]: 6

Substance: collagen IV NC1 domains of the NC1 hexamer from placenta basement membrane (domain or fragment)
stoichiometry N [5]: 6

Substance: collagen IV NC1 domains of the NC1 hexamer from rooster liver, kidney and chorioallantoic membrane (domain or fragment)
stoichiometry N [6]: 6

Substance: collagen IV NC1 domains of the NC1 hexamer from banded killifish organs (domain or fragment)
stoichiometry N [13]: 6
stoichiometry N [14]: 6

Substance: collagen IV NC1 domains of the NC1 hexamer from snapping turtle muscle (domain or fragment)
stoichiometry N [15]: 6

Substance: collagen IV NC1 domains of the NC1 hexamer from California blackworms (domain or fragment)
stoichiometry N [16]: 6
stoichiometry N [17]: 6

Substance: collagen IV NC1 domains of the NC1 hexamer from caiman liver (domain or fragment)
stoichiometry N [18]: 6

Substance: collagen IV NC1 domains of the NC1 hexamer from African clawed frog kidney (domain or fragment)
stoichiometry N [19]: 6

Substance: collagen IV NC1 domains of the NC1 hexamer from mussel (domain or fragment)
stoichiometry N [20]: 6
stoichiometry N [21]: 6

Substance: collagen IV NC1 domains of the NC1 hexamer from green iguana heart and kidney (domain or fragment)
stoichiometry N [23]: 6
stoichiometry N [24]: 6
